Data on one sequence can be found in patent publication EP0672136B1, “POLYPEPTIDES, DERIVED FROM ENDONEXIN 2, HAVING HEPATITIS B VIRUS RECEPTOR ACTIVITY AND THEIR USE IN DIAGNOSTIC AND PHARMACEUTICAL COMPOSITIONS” (priority 1992, dated 1994).

The target in the assay is T1, major HBsAg (Hepatitis B virus genotype A2 subtype adw2, UniProt P03141).
T1 construct: purchased Merck Sharp and Dohme Laboratories (gift of Dr. W. J. Miller, not bought); host or cells: yeast
The assay can be described thus: Binding of radiolabeled endonexin II to immobilized major HBsAg in the presence of endonexin II peptide fractions (F-peak inhibition assay). More on the design: species or system HBV. To be noted: fractions of acid-hydrolysed human liver endonexin-II; triplicate; Figure 23A. How it is done: Purified endonexin-II was treated according to the method as described in example 3. (Hydrolysis in 3% formic acid at 112°C for 4h). After treatment with formic acid, the protein digest was separated by reversed phase HPLC on a Vydac C-4 column (2.1 x 250 mm, Hesperia, CA, USA) as described in example 3. Peptide peaks were registered on a chart recorder and collected manually.
Binding experiments were performed according to the method as described in example 1 and 5. However, binding of radiolabeled endonexin-II to immobilized major HBsAg was carried out in the presence of individual peak fractions of unlabeled digested human liver endonexin-II (see above). The experiment was performed in triplicate. […] Therefore, these peptide was considered as one of the important major HBsAg-binding epitopes on endonexin-II. By sequencing an identical peak fraction in a parallel experiment, peptides corresponding to peaks F and S were determined as amino acids 266 to 280 (peak F, DHTLIRVMVSRSEID) and amino acids 92-138 (peak S): […]) of human endonexin II (numbering according to Kaplan et al., 1988).

T1 sequence (P03141 175-400): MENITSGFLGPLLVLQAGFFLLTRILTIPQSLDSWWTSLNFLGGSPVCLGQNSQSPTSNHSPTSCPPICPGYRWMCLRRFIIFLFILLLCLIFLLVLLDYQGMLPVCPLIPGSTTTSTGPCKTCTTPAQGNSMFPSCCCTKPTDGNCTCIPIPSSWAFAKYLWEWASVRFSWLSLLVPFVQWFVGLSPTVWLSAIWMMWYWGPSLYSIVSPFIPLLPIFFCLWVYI

Consider “DEEKFITIFGTRSVSHLRKVFDKYMTISGFQIEETI [peak L, region encompassing amino acids 190 to 225 of human endonexin]”, for which the “inhibition of binding of radiolabeled endonexin-II to major HBsAg by HPLC peak fraction” value is “slightly lower binding inhibition capacity”.
